# Source: patent US20190389958A1, “ANTI-CXCR4 ANTIBODIES” (MSM Protein Technologies, Inc., priority 2017, published 2019)
# Molecular target: human CXCR4 (human) (UniProt P61073)
# Experiment: flow cytometry, IgG 10 µg/mL, CXCR4-expressing Ramos (RA1) cells
# human CXCR4 (human), sequence (P61073 whole entry): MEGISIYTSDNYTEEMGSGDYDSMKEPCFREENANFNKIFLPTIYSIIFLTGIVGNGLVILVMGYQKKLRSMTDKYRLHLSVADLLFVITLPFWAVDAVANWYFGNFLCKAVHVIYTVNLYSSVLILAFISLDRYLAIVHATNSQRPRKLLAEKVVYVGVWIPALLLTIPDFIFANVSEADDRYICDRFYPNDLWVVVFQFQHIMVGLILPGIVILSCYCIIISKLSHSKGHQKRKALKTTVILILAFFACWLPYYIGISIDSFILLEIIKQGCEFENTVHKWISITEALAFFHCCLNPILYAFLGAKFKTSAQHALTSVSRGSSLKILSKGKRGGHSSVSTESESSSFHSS
substance,measurement,value
"human isotypic IgG1 kappa control (Coger Sarl, Paris, France) (antibody)",MFI,42
